{
  "source": "patent US20060234906A1",
  "about": "“Structure of a complex of retinoblastoma protein bound to e2f, and uses thereof” (priority 2002, published 2006)",
  "biological_target": "T1, RbAB and RbABC (Homo sapiens, UniProt P06400)",
  "T1 construct": "non-tagged RbAB (residues 372-787); His6-RbABC (RESIDUES 380-929); made in house; host or cells: E. coli",
  "T1 sequence (P06400 372-787 limits assumed)": "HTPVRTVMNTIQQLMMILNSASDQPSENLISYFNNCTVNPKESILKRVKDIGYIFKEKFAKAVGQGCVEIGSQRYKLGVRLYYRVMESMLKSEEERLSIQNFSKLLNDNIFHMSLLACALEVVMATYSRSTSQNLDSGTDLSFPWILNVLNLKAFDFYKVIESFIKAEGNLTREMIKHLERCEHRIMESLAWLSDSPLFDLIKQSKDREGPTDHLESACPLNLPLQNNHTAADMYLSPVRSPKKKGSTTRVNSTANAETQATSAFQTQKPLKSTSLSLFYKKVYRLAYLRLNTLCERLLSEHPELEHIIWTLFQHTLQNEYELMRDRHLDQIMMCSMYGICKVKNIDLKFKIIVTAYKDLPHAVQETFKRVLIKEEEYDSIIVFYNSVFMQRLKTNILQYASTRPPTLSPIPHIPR",
  "T1 sequence (P06400 380-928 limits assumed)": "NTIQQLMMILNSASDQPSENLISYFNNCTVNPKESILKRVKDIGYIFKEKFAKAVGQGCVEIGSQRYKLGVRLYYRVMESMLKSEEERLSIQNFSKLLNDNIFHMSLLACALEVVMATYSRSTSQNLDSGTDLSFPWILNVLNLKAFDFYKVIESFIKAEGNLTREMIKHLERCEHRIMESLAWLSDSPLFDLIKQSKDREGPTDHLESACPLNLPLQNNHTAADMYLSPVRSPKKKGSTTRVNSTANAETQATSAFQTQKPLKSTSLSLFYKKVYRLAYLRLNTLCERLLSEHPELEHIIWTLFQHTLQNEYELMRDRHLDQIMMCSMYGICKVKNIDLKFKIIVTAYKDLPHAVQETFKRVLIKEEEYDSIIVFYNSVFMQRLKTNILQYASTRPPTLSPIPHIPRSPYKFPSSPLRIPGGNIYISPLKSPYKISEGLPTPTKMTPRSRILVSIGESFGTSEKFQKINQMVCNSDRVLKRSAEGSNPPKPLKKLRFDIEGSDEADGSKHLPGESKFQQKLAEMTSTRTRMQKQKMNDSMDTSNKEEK",
  "assay": "Competition experiment (Ni column, SDS-PAGE): partition of E2F(243-437) between RbAB and RbABC",
  "format": "binding",
  "conditions": "His6-RbABC against non-tagged RbAB, proteins mixed at 40 μM",
  "description": "Binding of the various E2F constructs to RbAB and RbABC was measured by isothermal titration calorimetry using a MicroCal Omega VP-ITC machine (MicroCal Inc., Northampton, USA). The E2F constructs at a concentration between 100-150 μM were titrated into 12-15 μM Rb at a temperature of 22° C. Proteins were dialysed against 50 mM Tris pH 7.6, 100 mM NaCl and 1 mM TCEP. After subtraction of the dilution heats, calorimetric data was analysed using the evaluation software MicroCal Origin v5.0 (MicroCal Software Inc.). For all of the titrations, the stoichiometry of ligand binding to Rb was very close to 1.0. For E2F(243-437) binding to Rb, the binding affinity and the heat change associated with binding were such that we could only establish that binding was tighter than 10 nM.\nThe proteins used in these experiments were His6-RbABC (RESIDUES 380-929); MW 66.07 kDa, non-tagged RbAB (residues 372-787); MW 48.67 KDa, are His6-RbAB (residues 376-792); MW 49.86 KDa, E2F(243-437); MW 21.45 KDa HPV E7 (residues 17-98); MW 9.38 KDa and E2F(409-426); MW 2.12 KDa. Protein concentrations were carefully determined by u.v. spectroscopy and confirmed by ITC titrations. The small acidic E2F proteins stain much weaker than Rb with Coomassie on SDS-PAGE. For all gel lanes contained a final RbAB concentration of ca. 7 μM. […]",
  "data": [
    {"molecule": "E2F(243-437): Recombinant human E2F1(243-437) expressed in E. coli (protein, UniProt Q01094 243-437, looked up, fragment) LAYVTCQDLRSIADPAEQMVMVIKAPPETQLQAVDSSENFQISLKSKQGPIDVFLCPEETVGGISPGKTPSQEVTSEEENRATDSATIVSPPPSSPPSSLTTDPSQSLLSLEQEPLLSRMGSLRAPVDEDRLSPLVAADSLLEHVREDFSGLLPEEFISLSPPHEALDYHFGLEEGEGIRDLFDCDFGDLTPLDF", "values": [
      {"measurement": "partitioning between the two pRb species", "value": "approximately equal partitioning"}
    ]}
  ]
}
